The target of assay [1] is recombinant soluble urokinase plasminogen activator receptor (suPAR, aa 1-279) (UniProt Q03405). Briefly: ELISA on suPAR, bound Biotin-ATN-658 detected with HRP-streptavidin. A general note: In an ELISA, binding on a coated surface is turned into a signal by an enzyme label.
For assay [2] the target is unchanged. Briefly: direct binding assay (format and antigen form not stated).

As usually defined, the EC50 (read off the curve) is the concentration needed to bring the measured effect to its halfway point. By Kd is commonly meant the constant that tells how readily two partners part at equilibrium.

As for mAb ATN-658 (antibody), in assay [1], the EC50 (read off the curve) was 0.2 nM. For the same substance, the Kd in assay [2] came out at 1 nM.

The record behind these values is patent publication US20090180952A1.
